Tests used:
human SIRPγ = target: T1, human SIRPγ (human, UniProt Q9P1W8 29-387); assay: CELISA, CHO-K1 transfectants; extrapolated
T1 construct: on transfected CHO-K1 cells; also called hSIRPγ
Experimental: (§1) Binding of the humanized antibodies to hSIRPα was studied in CELISA format. Binding of the hSIRPα antibodies to human SIRPαV1, SIRPαV2, hSIRPβ1, and hSIRPγ was confirmed using CHO-K1 cells that had been transiently transfected with cDNA encoding the full length open reading frame of each of these respective targets subcloned into the pCI-neo vector. CHO-K1.hSIRPαV1, CHO-K1.hSIRPαV2, CHO-K1.hSIRPβ1, and CHO-K1.hSIRPγ cells were seeded in culture medium (DMEM-F12 (Gibco) supplemented with 5% New Born Calf Serum (BioWest) and Pen/Strep (Gibco)) in 96-well flat-bottom tissue culture plates and incubated at 37° C., 5% CO₂ and 95% humidity until cell layers were confluent. Subsequently, culture medium was removed and cells were incubated for 1 hour at 37° C., 5% CO₂ and 95% humidity with purified hSIRPα antibodies (10 μg/mL and dilutions thereof). Next, cells were washed with PBS-T and incubated for 1 hour at 37° C., 5% CO₂ and 95% humidity with goat-anti-human IgG-HRP conjugate (Jackson Immuno Research) or goat-anti-mouse IgG-HRP (Southern Biotech). Subsequently, cells were washed three times with PBS-T and anti-hSIRPα immunoreactivity was visualized with TMB Stabilized Chromogen (Invitrogen). Reactions were stopped with 0.5 M H₂SO₄ and absorbances were read at 450 and 610 nm. […] In Table 13 the EC50 values of the humanized hSIRPα antibodies are depicted.
(§2) Table 13: Binding of humanized and parental hSIRPα.50A antibodies to CHO-K1.hSIRPαV1, CHO-K1.hSIRPαV2, CHO-K1.hSIRPβ1, and CHO-K1.hSIRPγ cells.

human SIRPβ1 = target: T2, human SIRPβ1 (human, UniProt O00241 30-398); assay: CELISA, CHO-K1 transfectants; nd = not detected
T2 construct: also called hSIRPβ1
Experimental: as §1, §2

human SIRPα variant 1 = target: T3, human SIRPα variant 1 (human, UniProt P78324 31-504); assay: CELISA, CHO-K1 transfectants; average of two experiments
T3 construct: full length ORF on transfected CHO-K1 or HEK293 cells; entry includes the signal peptide; also called hSIRPαV1; SIRPαV1
Experimental: as §1, §2

human SIRPα variant 2 = target: T4, human SIRPα variant 2 (human, UniProt P78324 31-504); assay: as above
T4 construct: full length ORF on transfected CHO-K1 cells; also called hSIRPαV2; SIRPαV2
Experimental: as §1, §2

T4 sequence (P78324 other isoform, or with tags, fused parts or gaps mutant limits assumed): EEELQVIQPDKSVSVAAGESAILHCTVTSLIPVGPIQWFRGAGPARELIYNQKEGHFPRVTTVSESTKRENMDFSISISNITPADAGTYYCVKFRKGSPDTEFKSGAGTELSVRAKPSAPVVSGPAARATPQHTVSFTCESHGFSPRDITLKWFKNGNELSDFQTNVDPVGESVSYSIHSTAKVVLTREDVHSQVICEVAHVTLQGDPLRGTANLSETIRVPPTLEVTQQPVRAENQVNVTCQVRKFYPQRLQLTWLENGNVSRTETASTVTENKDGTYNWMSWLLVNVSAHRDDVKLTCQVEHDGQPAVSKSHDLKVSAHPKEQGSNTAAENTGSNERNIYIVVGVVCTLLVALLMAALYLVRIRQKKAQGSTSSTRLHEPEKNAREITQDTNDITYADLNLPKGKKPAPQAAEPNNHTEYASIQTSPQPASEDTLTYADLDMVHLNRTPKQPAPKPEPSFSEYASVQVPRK
T3 sequence (P78324 31-504 limits assumed, change not shown): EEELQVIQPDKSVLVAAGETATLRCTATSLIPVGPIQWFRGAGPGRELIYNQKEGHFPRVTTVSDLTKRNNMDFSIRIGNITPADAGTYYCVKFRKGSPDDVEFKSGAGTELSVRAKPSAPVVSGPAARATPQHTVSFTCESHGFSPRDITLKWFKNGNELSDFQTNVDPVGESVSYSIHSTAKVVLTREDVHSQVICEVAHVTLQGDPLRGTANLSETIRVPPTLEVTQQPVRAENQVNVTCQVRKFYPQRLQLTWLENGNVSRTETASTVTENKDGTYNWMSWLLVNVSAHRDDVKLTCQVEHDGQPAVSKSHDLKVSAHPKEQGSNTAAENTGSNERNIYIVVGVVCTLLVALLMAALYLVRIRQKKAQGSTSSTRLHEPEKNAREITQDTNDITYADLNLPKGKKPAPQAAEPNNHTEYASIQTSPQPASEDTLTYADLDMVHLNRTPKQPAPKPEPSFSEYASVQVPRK
T1 sequence (Q9P1W8 29-387 limits assumed): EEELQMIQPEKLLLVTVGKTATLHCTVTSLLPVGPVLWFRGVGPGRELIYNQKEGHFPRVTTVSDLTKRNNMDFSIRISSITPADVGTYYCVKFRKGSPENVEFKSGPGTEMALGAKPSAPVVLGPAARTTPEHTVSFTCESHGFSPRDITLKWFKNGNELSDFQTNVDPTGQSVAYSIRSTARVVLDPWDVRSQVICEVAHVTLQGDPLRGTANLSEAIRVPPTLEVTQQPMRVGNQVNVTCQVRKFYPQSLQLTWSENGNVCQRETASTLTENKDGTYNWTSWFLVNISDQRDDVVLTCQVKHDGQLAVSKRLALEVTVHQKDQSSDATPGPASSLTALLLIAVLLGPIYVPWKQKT
T2 sequence (O00241 30-398 limits assumed): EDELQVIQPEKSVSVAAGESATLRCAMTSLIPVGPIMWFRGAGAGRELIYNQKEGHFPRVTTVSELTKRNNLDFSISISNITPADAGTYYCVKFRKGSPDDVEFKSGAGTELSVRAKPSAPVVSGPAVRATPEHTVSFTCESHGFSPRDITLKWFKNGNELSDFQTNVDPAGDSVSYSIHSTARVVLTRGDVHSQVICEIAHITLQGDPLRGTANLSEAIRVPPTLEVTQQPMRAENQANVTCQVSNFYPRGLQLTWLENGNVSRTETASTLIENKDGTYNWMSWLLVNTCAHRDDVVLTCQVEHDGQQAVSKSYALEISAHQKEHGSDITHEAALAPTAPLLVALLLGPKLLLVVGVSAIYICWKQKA

Binder | EC50 (human SIRPγ) [nM] | EC50 (human SIRPα variant 1) [nM] | EC50 (human SIRPα variant 2) [nM] | binding result (human SIRPβ1)
hSIRPα.50A.H3L4 (antibody, human IgG4 S228P, kappa, V domains shown, human IgG4 S228P, kappa; also called hSIRPα.50H3L4) VH: EVQLVQSGAEVVKPGASVMISCKASGFTFTNYYIHWVRQRPGQGLEWIGWIYPGNVNTKYNEKFKARVIMTADKSTSTVYMQLSSLTSEDTAVYYCARPTIIATDFDVWGQGTLVTVSS VL: DIQMTQSPSSLSASVGDRVTITCKASQGVGTAVGWYQKKPGKVPKLLIYWASTRHTGVPDRFSGSGSGTDFTLTINGLQPEDVATYYCQQYSTYPFTFGGGTKLEIKR | 5.17 | 1.26 | 1.52 | no binding (tested: 10 µg/mL and dilutions thereof)
hSIRPα.50A.H3L5 (antibody, human IgG4 S228P, kappa, V domains shown, human IgG4 S228P, kappa; also called hSIRPα.50H3L5) VH: EVQLVQSGAEVVKPGASVMISCKASGFTFTNYYIHWVRQRPGQGLEWIGWIYPGNVNTKYNEKFKARVIMTADKSTSTVYMQLSSLTSEDTAVYYCARPTIIATDFDVWGQGTLVTVSS VL: DIVLTQSPSFLSASVGDRVTITCKASQGVGTAVGWYQQKPGKSPKLLIYWASTRHTGVPDRFSGSGSGTEFTLTISNLQPEDFAAYYCQQYSTYPFTFGGGTKLEIKR | 1.2 | 0.878 | 0.868 | no binding (tested: 10 µg/mL and dilutions thereof)
hSIRPα.50A.H4L3 (antibody, human IgG4 S228P, kappa, V domains shown, human IgG4 S228P, kappa; also called hSIRPα.50H4L3) VH: EVQLQQSGAELVKPGASVKVSCKASGFTFTNYYIHWVRQRPGQGLEWMGWIYPGNVNTKYNEKFKAKATITADKSTSTAYMELSSLTSEDTAVYYCARPTIIATDFDVWGQGTTVTVSS VL: ELVMTQSPSSLSASVGDRVTITCKASQGVGTAVGWYQQKPGKAPKLLIYWASTRHTGVPDRFSGSGSGTDFTLAISSLQPEDIADYYCQQYSTYPFTFGGGTKVEIKR | 1.6 | 0.933 | 0.898 | no binding (tested: 10 µg/mL and dilutions thereof)
hSIRPα.50A.H4L1 (antibody, human IgG4 S228P, kappa, V domains shown, human IgG4 S228P, kappa; also called hSIRPα.50H4L1) VH: EVQLQQSGAELVKPGASVKVSCKASGFTFTNYYIHWVRQRPGQGLEWMGWIYPGNVNTKYNEKFKAKATITADKSTSTAYMELSSLTSEDTAVYYCARPTIIATDFDVWGQGTTVTVSS VL: DIVLTQSPSFLSASVGDRVTITCKASQGVGTAVGWYQQKPGKAPKLLIYWASTRHTGVPDRFSGSGSGTEFTLTISSLQPEDFAAYYCQQYSTYPFTFGGGTKLEIKR | 0.95 | 0.683 | 0.681 | no binding (tested: 10 µg/mL and dilutions thereof)
hSIRPα.50A.H3L1 (antibody, human IgG4 S228P, kappa, V domains shown, human IgG4 S228P, kappa; also called hSIRPα.50H3L1) VH: EVQLVQSGAEVVKPGASVMISCKASGFTFTNYYIHWVRQRPGQGLEWIGWIYPGNVNTKYNEKFKARVIMTADKSTSTVYMQLSSLTSEDTAVYYCARPTIIATDFDVWGQGTLVTVSS VL: DIVLTQSPSFLSASVGDRVTITCKASQGVGTAVGWYQQKPGKAPKLLIYWASTRHTGVPDRFSGSGSGTEFTLTISSLQPEDFAAYYCQQYSTYPFTFGGGTKLEIKR | 1.42 | 1.1 | 1.06 | no binding (tested: 10 µg/mL and dilutions thereof)
hSIRPα.50A.H3L3 (antibody, human IgG4 S228P, kappa, V domains shown, human IgG4 S228P, kappa; also called hSIRPα.50H3L3) VH: EVQLVQSGAEVVKPGASVMISCKASGFTFTNYYIHWVRQRPGQGLEWIGWIYPGNVNTKYNEKFKARVIMTADKSTSTVYMQLSSLTSEDTAVYYCARPTIIATDFDVWGQGTLVTVSS VL: ELVMTQSPSSLSASVGDRVTITCKASQGVGTAVGWYQQKPGKAPKLLIYWASTRHTGVPDRFSGSGSGTDFTLAISSLQPEDIADYYCQQYSTYPFTFGGGTKVEIKR | 2.47 | 1.16 | 1.16 | no binding (tested: 10 µg/mL and dilutions thereof)
hSIRPα.50A.H4L4 (antibody, human IgG4 S228P, kappa, V domains shown, human IgG4 S228P, kappa; also called hSIRPα.50H4L4) VH: EVQLQQSGAELVKPGASVKVSCKASGFTFTNYYIHWVRQRPGQGLEWMGWIYPGNVNTKYNEKFKAKATITADKSTSTAYMELSSLTSEDTAVYYCARPTIIATDFDVWGQGTTVTVSS VL: DIQMTQSPSSLSASVGDRVTITCKASQGVGTAVGWYQKKPGKVPKLLIYWASTRHTGVPDRFSGSGSGTDFTLTINGLQPEDVATYYCQQYSTYPFTFGGGTKLEIKR | 1.98 | 1.2 | 1.24 | no binding (tested: 10 µg/mL and dilutions thereof)

More lines, main results first:

EC50 (human SIRPγ) [nM] | EC50 (human SIRPα variant 1) [nM] | EC50 (human SIRPα variant 2) [nM] | Binder | binding result (human SIRPβ1)
0.808 | 0.701 | 0.661 | hSIRPα.50A.H4L5 (antibody, human IgG4 S228P, kappa, V domains shown, human IgG4 S228P, kappa; also called hSIRPα.50H4L5) VH: EVQLQQSGAELVKPGASVKVSCKASGFTFTNYYIHWVRQRPGQGLEWMGWIYPGNVNTKYNEKFKAKATITADKSTSTAYMELSSLTSEDTAVYYCARPTIIATDFDVWGQGTTVTVSS VL: DIVLTQSPSFLSASVGDRVTITCKASQGVGTAVGWYQQKPGKSPKLLIYWASTRHTGVPDRFSGSGSGTEFTLTISNLQPEDFAAYYCQQYSTYPFTFGGGTKLEIKR | no binding (tested: 10 µg/mL and dilutions thereof)
1.61 | 1.03 | 0.796 | hSIRPα.50A.H5L3 (antibody, human IgG4 S228P, kappa, V domains shown, human IgG4 S228P, kappa; also called hSIRPα.50H5L3) VH: EVQLVQSGAEVVKPGASVKVSCKASGFTFTNYYIHWVRQAPEQGLEWIGWIYPGNVNTKYNEKFKARVTMTADKSTSTAYMELSSLRSDDMAVYYCARPTIIATDFDVWGQGTTVTVSS VL: ELVMTQSPSSLSASVGDRVTITCKASQGVGTAVGWYQQKPGKAPKLLIYWASTRHTGVPDRFSGSGSGTDFTLAISSLQPEDIADYYCQQYSTYPFTFGGGTKVEIKR | no binding (tested: 10 µg/mL and dilutions thereof)
0.868 | 0.681 | 0.611 | hSIRPα.50A.H5L5 (antibody, human IgG4 S228P, kappa, V domains shown, human IgG4 S228P, kappa; also called hSIRPα.50H5L5) VH: EVQLVQSGAEVVKPGASVKVSCKASGFTFTNYYIHWVRQAPEQGLEWIGWIYPGNVNTKYNEKFKARVTMTADKSTSTAYMELSSLRSDDMAVYYCARPTIIATDFDVWGQGTTVTVSS VL: DIVLTQSPSFLSASVGDRVTITCKASQGVGTAVGWYQQKPGKSPKLLIYWASTRHTGVPDRFSGSGSGTEFTLTISNLQPEDFAAYYCQQYSTYPFTFGGGTKLEIKR | no binding (tested: 10 µg/mL and dilutions thereof)
1.03 | 0.731 | 0.709 | hSIRPα.50A.H5L1 (antibody, human IgG4 S228P, kappa, V domains shown, human IgG4 S228P, kappa; also called hSIRPα.50H5L1) VH: EVQLVQSGAEVVKPGASVKVSCKASGFTFTNYYIHWVRQAPEQGLEWIGWIYPGNVNTKYNEKFKARVTMTADKSTSTAYMELSSLRSDDMAVYYCARPTIIATDFDVWGQGTTVTVSS VL: DIVLTQSPSFLSASVGDRVTITCKASQGVGTAVGWYQQKPGKAPKLLIYWASTRHTGVPDRFSGSGSGTEFTLTISSLQPEDFAAYYCQQYSTYPFTFGGGTKLEIKR | no binding (tested: 10 µg/mL and dilutions thereof)
0.822 | 0.675 | 0.572 | hSIRPα.50A.H5L2 (antibody, human IgG4 S228P, kappa, V domains shown, human IgG4 S228P, kappa; also called hSIRPα.50H5L2) VH: EVQLVQSGAEVVKPGASVKVSCKASGFTFTNYYIHWVRQAPEQGLEWIGWIYPGNVNTKYNEKFKARVTMTADKSTSTAYMELSSLRSDDMAVYYCARPTIIATDFDVWGQGTTVTVSS VL: DIVMTQSPSSLSASVGDRVTITCKASQGVGTAVGWYQQKPGKAPKLLIYWASTRHTGVPDRFSGSGSGTDFTLTISNLQPEDFADYYCQQYSTYPFTFGGGTKVEIKR | no binding (tested: 10 µg/mL and dilutions thereof)
